Laboratory results from patent US20120252742A1.

Key:
[1] = molecular target: SIY peptide on H-2Kb (mouse); experiment: value stated in the legend of FIG. 16; method not given
[2] = molecular target: human immunodeficiency virus (HIV) Gag protein (SL9) peptide on HLA-A*02:01 (human); experiment: SL9 peptide titrated on T2 cells, stained with 100 nM multi-biotinylated scTCR (FIG. 11C); soluble, other
[3] = molecular target: SL9 (HIV-Gag)/HLA.A2 streptavidin:phycoerythrin tetramer (human immunodeficiency virus; human); experiment: cell-based or functional assay
[4] = molecular target: SIY peptide on H-2Kb (mouse); experiment: value cited from Chervin et al. 2009 (ref 18); method not given
[5] = molecular target: SIY peptide on K^b of antigen presenting cells (T2-K^b); experiment: cell-based or functional assay
[6] = molecular target: SIY peptide on H-2Kb (mouse); experiment: IL-2 release; transduced 58-/- cells, SIY peptide on T2-K^b (FIG. 17); fusion: CD28, CD3ζ, LCK
[7] = molecular target: SL9 peptide on HLA.A2 of peptide-loaded HLA.A2+ cells (T2) (human immunodeficiency virus; human); experiment: flow cytometry: T2 cells loaded with 10 uM SL9, biotinylated scTCR, streptavidin:PE
[8] = molecular target: SL9 peptide on HLA.A2 of peptide-loaded HLA.A2+ cells (T2) (human immunodeficiency virus; human); experiment: flow cytometry: T2 cells loaded with 10 uM SL9, titration of biotinylated scTCR, streptavidin:PE
[9] = molecular target: SL9 peptide on HLA.A2 of peptide-loaded HLA.A2+ cells (T2) (human immunodeficiency virus; human); experiment: flow cytometry: SL9 peptide titrated on T2 cells, 100 nM biotinylated scTCR; the reference value is from the literature

Q: How did the Kd [1] turn out when 2C (full-length αβ TCR) was run?
A: 30 µM

Q: 868-Z11 was tested. Which lowest SL9 peptide concentration detected [2] did it give?
A: 10 nM

Q: Which T cell activation by plate-bound pepMHC tetramer, EC50 [3] does the source give for “868-Z11 scTCR (Vβ-linker-Vα) fused to CD28, CD3ζ, LCK, on the surface of transduced T cells” here?
A: 4 nM

Q: m33 (full-length αβ TCR) was tested. Which Kd [1] did it give?
A: 0.03 µM

Q: What about the Kd [4] of the same substance?
A: 16 nM

Q: With “m33 scTCR (Vα-linker-Vβ) fused to CD28, CD3ζ, LCK, on the surface of 58-/- T cell hybridoma” as the substance, how does the IL-2 release, lowest SIY peptide concentration that activates [5] read?
A: 1 nM

Q: For “m33 scTCR with 2C-T7 stabilizing mutations”, which lowest activating peptide concentration [6] is on record?
A: 1 nM

Q: Which results are given for “soluble, biotinylated 868-Z11 single-chain TCR expressed in E. coli (pET28a) and refolded”?
A: lowest scTCR concentration at which peptide loaded cells were detected [7]: 0.1 nM; EC50 [8]: 4 nM; fold improvement in limit of detection relative to the full-length 868 TCR variant described by Varela-Rohena et al [9]: 5 fold
